What all share (assay): pull-down binding Z-score (relative to library population); higher = stronger binding
For one series, the system named is TO-N3 (biotin conjugate). The following applies: RNA library: Library-2. The procedure, abridged:
(§1)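 Streptavidin beads with 100 pmol of biotin-conjugated small molecule were incubated for 60 min at 25 °C with 1 μg of heat-folded Cy5- or Cy3-end-labelled RNA library in phosphate/NaCl/KCl buffer. Bound RNA was eluted in hot SDS after three washes and hybridised to a DNA barcode microarray at 55.5 °C for 20 h. Each binding score is a library-referenced Z-score, computed after beads-only subtraction and a trimmed mean of barcoded replicate probes.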

Series [1] has as its system TO-N3-2 (biotin conjugate). The conditions noted are these: RNA library: Library-2. The gist of the method:
as §1

Series [2] deals with G-clamp-N3 (biotin conjugate). The conditions noted are these: RNA library: Library-1 (pre-miRNA loops + repeats). The procedure, abridged: as §1
Series [3] relates to TO-3-N3-2 (biotin conjugate). The conditions noted are these: RNA library: Library-2. The procedure, abridged:
as §1

Series [4] deals with TO-3-N3 (biotin conjugate). The following applies: RNA library: Library-2. The procedure, abridged: as §1

For the sequence “UGAGGAGCUUAGCAAGUAGCUAAGGCCAGA [hsa-mir-4517]”, the “pull-down binding Z-score” value is 0.339 in the series with TO-N3 (biotin conjugate); 1.1 in series [1]; 0.384 in series [2]; -0.393 in series [3]; -0.194 in series [4].
Turning to UUGGCCUUUAUUUUCAAUGGCAAG [hsa-mir-548b], the “pull-down binding Z-score” value is 0.349 with TO-N3 (biotin conjugate); 0.0975 in series [1]; -0.0843 in series [2]; -0.117 in series [3]; 0.655 in series [4].
As for “CUUGCGGGGCCUUCGCCGCACACAAG [hsa-mir-99b]”, the “pull-down binding Z-score” value was 0.328 with TO-N3 (biotin conjugate); 0.595 in series [1]; 1.51 in series [2]; -0.148 in series [3]; 0.198 in series [4].
As for UUUGCCAGAGCUACAAAGGCAAA [hsa-mir-561], the “pull-down binding Z-score” value is -0.845 with TO-N3 (biotin conjugate); -0.512 in series [1]; 0.627 in series [2]; -0.521 in series [3]; -0.527 in series [4].
Taken in the same sequence, the figures for UCUUCCCAGAAUUGGGAAAA [hsa-mir-320c-2] were -1.33, -1.68, -0.574, -0.72 and -0.813.
Taken in the same sequence, the figures for AUGUGUUGUGAUGGCACAGCGU [hsa-mir-592] were -0.817, 0.256, -0.64, -0.582 and -0.831.
Take “CUGUCCUGGACUGGGGUCAGACUGUGCCCCGAGGAGAAGCAG [hsa-mir-922]”: the “pull-down binding Z-score” value was 0.794 in the series on TO-N3 (biotin conjugate); 1.47 in series [1]; 0.368 in series [2]; -0.166 in series [3]; -0.2 in series [4].
In the case of GUUAGACCUGGCCCUCUGUCUAAU [hsa-mir-429], the “pull-down binding Z-score” value in the series on TO-N3 (biotin conjugate) is 0.564; in series [1] it was 0.3; in series [2], -0.787; in series [3], -0.136; in series [4], 0.355.
Taken in the same sequence, the figures for “GAAGCUGUGAAGCCACAGAUGGGCUUU [hsa-mir-30a]” were 0.224, 0.641, 0.763, 0.0568 and -0.0778.
As for “AUUGAGAGUUCCUUCUCCUGCUCCUGAU [hsa-mir-6766]”, the “pull-down binding Z-score” value in the series with TO-N3 (biotin conjugate) was -0.462; in series [1], -0.0576; in series [2], -0.32; in series [3], -0.369; in series [4] it was -0.548.
For “GGGUGAUACACAAGCCUGACCCUCCC [hsa-mir-6793]”, the “pull-down binding Z-score” value with TO-N3 (biotin conjugate) is 0.416; in series [1], 0.954; in series [2], -0.976; in series [3], 0.55; in series [4], 0.244.
Taken in the same sequence, the figures for “CUCUCCUGACCAGCUGAGCUGGAGGAGAG [hsa-mir-3160-2]” were -0.48, -1.08, 1.35, -0.397 and -0.0412.
For AGGACGGUGCGCCUUGUUUCCC [hsa-mir-3132], in that order: 0.0408, 0.529, -1.1, -0.0152 and -0.376.
For UUCGCAUUAUUUAAUGAUGCCCA [hsa-mir-323b], in that order: -0.467, -0.486, -0.751, -0.241 and -0.392.
Consider CGUGCAAGUUUAAGUUUUUGCACG [hsa-mir-4445], for which the “pull-down binding Z-score” value is 0.282 in the series on TO-N3 (biotin conjugate); -0.688 in series [1]; 0.55 in series [2]; -0.0878 in series [3]; 0.314 in series [4].
For CUGUUGAAAGAAAAG [hsa-mir-526a-2], in that order: 1.01, 0.598, -0.371, 0.511 and 0.496.
On to GGAAGGGCGCCUGUGCUUCGUCC [hsa-mir-572], for which the “pull-down binding Z-score” value is 0.52 in the series on TO-N3 (biotin conjugate); 0.767 in series [1]; 0.21 in series [2]; -0.215 in series [3]; 0.31 in series [4].
For CACUCAGUAAAUAUUUGUUGAGUG [hsa-mir-1271], the “pull-down binding Z-score” value with TO-N3 (biotin conjugate) is -0.674; in series [1] it was -1.18; in series [2], 0.231; in series [3], -0.186; in series [4], -0.368.
Take “CUGCAGUGAGCGAUCGGUGCUCUGGGG [hsa-mir-503]”: the “pull-down binding Z-score” value with TO-N3 (biotin conjugate) is 0.798; in series [1], 1.07; in series [2], 1.34; in series [3], 0.308; in series [4], 0.176.
For “GCCAUCUGGUUGUGACAUCACUGAUGGC [hsa-mir-7155]”, in that order: 0.932, 0.128, -0.231, 0.0839 and 1.09.
Turning to “CAAAACUCCGUACAUUGCUAUUUUGC [hsa-mir-3064]”, the “pull-down binding Z-score” value was -0.39 in the series on TO-N3 (biotin conjugate); -0.105 in series [1]; -0.316 in series [2]; 0.0575 in series [3]; -0.563 in series [4].
For CAACUACUCAGGAGGCUG [hsa-mir-566], in that order: 0.0834, 0.304, -0.123, -0.179 and -0.196.
For “UUUUGCCAUUAAAAGUAAUGACAAAA [hsa-mir-548f-4]”, in that order: -1.47, -1.66, -0.841, -0.56 and -0.924.
For the sequence “AUUAGACAGAAAAAAGUUAGACACAAAAAAUUGUGUCUAAU [hsa-mir-4759]”, the “pull-down binding Z-score” value in the series with TO-N3 (biotin conjugate) is 0.136; in series [1], -0.525; in series [2] it was -0.0386; in series [3], 0.561; in series [4], 0.284.
Taken in the same sequence, the figures for GGACUUGCGGUUCA [hsa-mir-8057] were -0.0278, 0.109, -1.11, -0.281 and -0.0023.
Taken in the same sequence, the figures for “GUGUCUGGCCCCAGCAGCCCAGACU [hsa-mir-6751]” were 0.766, 1.39, -0.568, -0.171 and 0.258.
Taken in the same sequence, the figures for ACGCGCUGUGACACUUCAAACUCGU [hsa-mir-126] were 0.062, 0.424, -0.904, -0.171 and -0.0932.
On to CAGGCUGUGGCUCUCUGAAAGUC [hsa-mir-148b], for which the “pull-down binding Z-score” value in the series on TO-N3 (biotin conjugate) was 1.09; in series [1], 1.18; in series [2] it was -1.29; in series [3], 0.496; in series [4] it was 0.761.

(Values after the supplement of paper PMC11865577.)
